Test [1] concerns the target Hsp60 C-terminal deletion mutant Δ522 (terminal 26 residues removed) (human). As to the kind of experiment: cryo-EM structure.
For test [2], the target named is Hsp60 C-terminal deletion mutant Δ532 (terminal 16 residues removed) (human).

On to “Hsp60 C-terminal deletion mutant Δ522 (terminal 26 residues removed) (domain or fragment)”, for which, in test [1], the stoichiometry N – broadly, a count of units in the complex or per binding partner – stood at 14.

B1: human malate dehydrogenase (hMDH), acid-denatured (enzyme)
chain: AKVAVLGASGGIGQPLSLLLKNSPLVSRLTLYDIAHTPGVAADLSHIETKAAVKGYLGPEQLPDCLKGCDVVVIPAGVPRKPGMTRDDLFNTNATIVATLTAACAQHCPEAMICVIANPVNSTIPITAEVFKKHGVYNPNKIFGVTTLDIVRANTFVAELKGLDPARVNVPVIGGHAGKTIIPLISQCTPKVDFPQDQLTALTGRIQEAGTEVVKAKAGAGSATLSMAYAGARFVFSLVDAMNGKEGVVECSFVKSQETECTYFSTPLLLGKKGIEKNLGIGKVSSFEEKMISDAIPELKASIKKGEDFVKTLK
B1 had a refolding of denatured hMDH (hMDH activity), loss against wild-type Hsp60 in test [2] of 27%.

These data come from publication doi:10.1101/2023.09.15.558033.
